These results are taken from article doi:10.1101/375832, “A Ubiquitin-Binding Domain that Does Not Bind Ubiquitin” (bioRxiv, 2018).

Holding throughout (settings): both partners purified
Experiment [1] has as its target T1, KAP1 RBCC (S33-K434), purified (human, UniProt Q13263 33-434).
T1 construct: KAP1 (TRIM28), human, residues S33-K434, RBCC domain; also called KAP1 S33-K434; Fragment 1; source: E. coli BL-21 CodonPlus (DE3)-RP, purified (Ni-NTA, Mono Q)
Description: co-IP; purified SMARCAD1 fragments (CUE1,2, CUE1) and KAP1 RBCC, 9.6μg of each in a 240μL binding reaction, 1 hour at 4°C; immunoprecipitated with anti-FLAG M2 affinity gel for 3 hours at 4°C.

The target in experiment [2] is T2, KAP1 RBCC (S33-K434) M335A (human, UniProt Q13263 33-434, M335A).
T2 construct: KAP1 (TRIM28), human, RBCC fragment S33-K434; source: E. coli, purified; construct generated by GenScript
The description is as above.

The target in experiment [3] is T3, KAP1 RBCC (S33-K434) E343A (human, UniProt Q13263 33-434, E343A).
T3 construct: KAP1 (TRIM28), human, RBCC fragment S33-K434; source: E. coli, purified; construct generated by GenScript
The description is as above.

Experiment [4] concerns the target T4, KAP1 RBCC (S33-K434) L376A (human, UniProt Q13263 33-434, L376A).
T4 construct: KAP1 (TRIM28), human, RBCC fragment S33-K434; source: E. coli, purified; construct generated by GenScript
Described as above.

Experiment [5] deals with T5, KAP1 RBCC (S33-K434) I379A (human, UniProt Q13263 33-434, I379A).
T5 construct: KAP1 (TRIM28), human, RBCC fragment S33-K434; source: E. coli, purified; construct generated by GenScript
The description is as above.

For experiment [6], the target named is T6, KAP1 RBCC (S33-K434) V380A (human, UniProt Q13263 33-434, V380A).
T6 construct: KAP1 (TRIM28), human, RBCC fragment S33-K434; source: E. coli, purified; construct generated by GenScript
Described as above.

Experiment [7] deals with T7, FLAG-SMARCAD1, full-length, wild type, recombinant from E. coli (human, UniProt Q9H4L7 1-1026).
T7 construct: SMARCAD1, human, full-length; Cloned in pET28a-SUMO; source: E. coli BL-21 CodonPlus (DE3)-RIL, purified (HisTrap, Heparin, ProSwift SAX-1S)
T7 sequence (looked up): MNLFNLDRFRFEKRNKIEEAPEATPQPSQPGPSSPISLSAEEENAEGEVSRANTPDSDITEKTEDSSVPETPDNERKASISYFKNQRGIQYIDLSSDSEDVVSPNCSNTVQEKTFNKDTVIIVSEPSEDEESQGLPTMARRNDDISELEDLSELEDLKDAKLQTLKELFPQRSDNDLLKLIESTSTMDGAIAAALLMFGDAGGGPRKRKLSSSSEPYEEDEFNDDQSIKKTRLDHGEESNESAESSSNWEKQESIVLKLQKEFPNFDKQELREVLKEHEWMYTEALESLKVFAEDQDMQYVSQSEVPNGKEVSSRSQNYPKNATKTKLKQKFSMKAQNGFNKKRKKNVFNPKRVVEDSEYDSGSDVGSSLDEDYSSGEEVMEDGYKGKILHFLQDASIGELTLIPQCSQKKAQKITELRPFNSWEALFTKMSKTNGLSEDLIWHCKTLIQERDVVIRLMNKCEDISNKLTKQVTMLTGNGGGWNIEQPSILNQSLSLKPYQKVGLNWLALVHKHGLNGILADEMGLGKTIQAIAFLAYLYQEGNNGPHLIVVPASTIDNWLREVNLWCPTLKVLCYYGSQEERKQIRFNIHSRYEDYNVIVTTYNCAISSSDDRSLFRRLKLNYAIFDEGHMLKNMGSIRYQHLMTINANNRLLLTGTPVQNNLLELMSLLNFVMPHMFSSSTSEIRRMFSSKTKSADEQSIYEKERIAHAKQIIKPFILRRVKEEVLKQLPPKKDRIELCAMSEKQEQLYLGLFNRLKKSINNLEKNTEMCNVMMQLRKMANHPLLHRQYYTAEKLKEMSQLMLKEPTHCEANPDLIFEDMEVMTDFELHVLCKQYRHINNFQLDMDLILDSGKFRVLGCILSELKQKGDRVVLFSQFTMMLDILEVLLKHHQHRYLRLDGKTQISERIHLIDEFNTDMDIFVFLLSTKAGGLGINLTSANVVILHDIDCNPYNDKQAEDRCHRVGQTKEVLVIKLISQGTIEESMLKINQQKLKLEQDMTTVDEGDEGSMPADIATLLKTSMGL
The experiment can be described thus: co-IP; purified full-length SMARCAD1 and KAP1 from E. coli, 7μg of each in 280μL SK binding buffer, 200mM NaCl, 4°C; immunoprecipitated overnight with anti-FLAG M2 affinity gel.

Residue numbers refer to the chain shown, from its start.

T4 sequence (Q13263 33-434 L376A): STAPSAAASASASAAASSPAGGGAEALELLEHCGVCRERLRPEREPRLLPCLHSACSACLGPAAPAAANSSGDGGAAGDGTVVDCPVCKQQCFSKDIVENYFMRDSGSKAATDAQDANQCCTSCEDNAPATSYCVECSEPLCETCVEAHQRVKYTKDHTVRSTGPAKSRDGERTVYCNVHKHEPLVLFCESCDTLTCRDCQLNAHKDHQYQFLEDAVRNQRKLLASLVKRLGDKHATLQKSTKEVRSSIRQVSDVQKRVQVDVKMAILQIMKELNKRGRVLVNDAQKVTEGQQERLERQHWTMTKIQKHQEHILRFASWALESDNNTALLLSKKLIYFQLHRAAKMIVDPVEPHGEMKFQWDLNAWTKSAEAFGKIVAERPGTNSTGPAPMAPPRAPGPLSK
T5 sequence (Q13263 33-434 I379A): as the sequence (Q13263 33-434 L376A) above, with A344L, I347A counted along it
T6 sequence (Q13263 33-434 V380A): as the sequence (Q13263 33-434 L376A) above, with A344L, V348A counted along it
T3 sequence (Q13263 33-434 E343A): as the sequence (Q13263 33-434 L376A) above, with E311A, A344L counted along it
T2 sequence (Q13263 33-434 M335A): as the sequence (Q13263 33-434 L376A) above, with M303A, A344L counted along it

B1: FLAG-tagged SMARCAD1 CUE1,2 fragment (S95-N347), wild type (domain or fragment, human, UniProt Q9H4L7 95-347, looked up)
chain: SSDSEDVVSPNCSNTVQEKTFNKDTVIIVSEPSEDEESQGLPTMARRNDDISELEDLSELEDLKDAKLQTLKELFPQRSDNDLLKLIESTSTMDGAIAAALLMFGDAGGGPRKRKLSSSSEPYEEDEFNDDQSIKKTRLDHGEESNESAESSSNWEKQESIVLKLQKEFPNFDKQELREVLKEHEWMYTEALESLKVFAEDQDMQYVSQSEVPNGKEVSSRSQNYPKNATKTKLKQKFSMKAQNGFNKKRKKN
notes: SMARCAD1, human, residues S95-N347 encompassing both CUE domains; source: E. coli BL-21 CodonPlus (DE3)-RIL, purified (Ni-NTA, Mono Q if required)
Consider B1, for which the binding result in experiment [1], in experiment [2], in experiment [3], in experiment [4], in experiment [5] and in experiment [6] was “binds” in each case.

B2: FLAG-tagged SMARCAD1 CUE1,2 fragment E167A (domain or fragment, human, UniProt Q9H4L7 95-347, looked up)
chain: B1 chain with E73A
notes: SMARCAD1, human, CUE1,2 fragment S95-N347; source: E. coli, purified; construct generated by GenScript
Consider B2, for which the binding result in experiment [1] is given as “binds”.

B3: FLAG-tagged SMARCAD1 CUE1,2 fragment L196A (domain or fragment, human, UniProt Q9H4L7 95-347, looked up)
chain: B1 chain with L102A
notes: as for B2
Take B3: the binding result in experiment [1] is “binds”.

B4: FLAG-tagged SMARCAD1 CUE1,2 fragment P170A (domain or fragment, human, UniProt Q9H4L7 95-347, looked up)
chain: B1 chain with P76A
notes: as for B2
Regarding B4, the binding result in experiment [1] is given as “binds”.

B5: FLAG-tagged SMARCAD1 CUE1,2 fragment D188A (domain or fragment, human, UniProt Q9H4L7 95-347, looked up)
chain: B1 chain with D94A
notes: as for B2
As for B5, the binding result in experiment [1] is on record as “binds”.

B6: FLAG-tagged SMARCAD1 CUE1,2 fragment Q171A (domain or fragment, human, UniProt Q9H4L7 95-347, looked up)
chain: B1 chain with Q77A
notes: as for B2
With B6, in experiment [1], the binding result is “binds”.

B7: FLAG-tagged SMARCAD1 CUE1,2 fragment L195A (domain or fragment, human, UniProt Q9H4L7 95-347, looked up)
chain: B1 chain with L101A
notes: as for B2
With B7, the binding result in experiment [1] was “binds”.

B8: KAP1, full-length, recombinant from E. coli (HA-KAP1) (natural protein, human, UniProt Q13263 1-835, looked up)
chain: MAASAAAASAAAASAASGSPGPGEGSAGGEKRSTAPSAAASASASAAASSPAGGGAEALELLEHCGVCRERLRPEREPRLLPCLHSACSACLGPAAPAAANSSGDGGAAGDGTVVDCPVCKQQCFSKDIVENYFMRDSGSKAATDAQDANQCCTSCEDNAPATSYCVECSEPLCETCVEAHQRVKYTKDHTVRSTGPAKSRDGERTVYCNVHKHEPLVLFCESCDTLTCRDCQLNAHKDHQYQFLEDAVRNQRKLLASLVKRLGDKHATLQKSTKEVRSSIRQVSDVQKRVQVDVKMAILQIMKELNKRGRVLVNDAQKVTEGQQERLERQHWTMTKIQKHQEHILRFASWALESDNNTALLLSKKLIYFQLHRALKMIVDPVEPHGEMKFQWDLNAWTKSAEAFGKIVAERPGTNSTGPAPMAPPRAPGPLSKQGSGSSQPMEVQEGYGFGSGDDPYSSAEPHVSGVKRSRSGEGEVSGLMRKVPRVSLERLDLDLTADSQPPVFKVFPGSTTEDYNLIVIERGAAAAATGQPGTAPAGTPGAPPLAGMAIVKEEETEAAIGAPPTATEGPETKPVLMALAEGPGAEGPRLASPSGSTSSGLEVVAPEGTSAPGGGPGTLDDSATICRVCQKPGDLVMCNQCEFCFHLDCHLPALQDVPGEEWSCSLCHVLPDLKEEDGSLSLDGADSTGVVAKLSPANQRKCERVLLALFCHEPCRPLHQLATDSTFSLDQPGGTLDLTLIRARLQEKLSPPYSSPQEFAQDVGRMFKQFNKLTEDKADVQSIIGLQRFFETRMNEAFGDTKFSAVLVEPPPMSLPGAGLSSQELSGGPGDGP
notes: KAP1 (TRIM28), human, full-length; also called TRIM28; TIF1β; source: E. coli BL-21 CodonPlus (DE3)-RP, purified (HisTrap, Heparin, Sephacryl S-400 gel filtration)
On to B8, for which, in experiment [7], the binding result is recorded as “binds”.

B9: FLAG-tagged SMARCAD1 CUE1,2 fragment Δ200-230 (domain or fragment, human, UniProt Q9H4L7 95-347, looked up)
chain: SSDSEDVVSPNCSNTVQEKTFNKDTVIIVSEPSEDEESQGLPTMARRNDDISELEDLSELEDLKDAKLQTLKELFPQRSDNDLLKLIESTSTMDGAIAAALLMFGTRLDHGEESNESAESSSNWEKQESIVLKLQKEFPNFDKQELREVLKEHEWMYTEALESLKVFAEDQDMQYVSQSEVPNGKEVSSRSQNYPKNATKTKLKQKFSMKAQNGFNKKRKKN
notes: SMARCAD1, human, CUE1,2 fragment S95-N347 with residues 200-230 deleted; source: E. coli, purified; construct generated by GenScript
For B9, the binding result in experiment [1] is listed as “binds”.

B10: SMARCAD1 CUE1 fragment (S95-E237), wild type (domain or fragment, human, UniProt Q9H4L7 95-237, looked up)
chain: SSDSEDVVSPNCSNTVQEKTFNKDTVIIVSEPSEDEESQGLPTMARRNDDISELEDLSELEDLKDAKLQTLKELFPQRSDNDLLKLIESTSTMDGAIAAALLMFGDAGGGPRKRKLSSSSEPYEEDEFNDDQSIKKTRLDHGE
notes: SMARCAD1, human, residues S95-E237 spanning only the first CUE domain; also called wild type CUE1 fragment; source: E. coli BL-21 CodonPlus (DE3)-RIL, purified (Ni-NTA, Mono Q if required)
Regarding B10, the binding result in experiment [1] is reported as “binds”.
